Laboratory results as given in patent JP2014141434A (dated 2014).

What was measured:
[1] = biological target: T1, N末端FLAG−tag付加型ヒトROBO4細胞外領域ドメイン欠損体 hROBO4−210 (human, UniProt Q8WZ75 210-1007); assay: flow cytometry, transfected HEK293 cells
T1 construct: On HEK293 cells; also called pCI−FLAG−hROBO4−210; pCI−hROBO4−210
T1 sequence: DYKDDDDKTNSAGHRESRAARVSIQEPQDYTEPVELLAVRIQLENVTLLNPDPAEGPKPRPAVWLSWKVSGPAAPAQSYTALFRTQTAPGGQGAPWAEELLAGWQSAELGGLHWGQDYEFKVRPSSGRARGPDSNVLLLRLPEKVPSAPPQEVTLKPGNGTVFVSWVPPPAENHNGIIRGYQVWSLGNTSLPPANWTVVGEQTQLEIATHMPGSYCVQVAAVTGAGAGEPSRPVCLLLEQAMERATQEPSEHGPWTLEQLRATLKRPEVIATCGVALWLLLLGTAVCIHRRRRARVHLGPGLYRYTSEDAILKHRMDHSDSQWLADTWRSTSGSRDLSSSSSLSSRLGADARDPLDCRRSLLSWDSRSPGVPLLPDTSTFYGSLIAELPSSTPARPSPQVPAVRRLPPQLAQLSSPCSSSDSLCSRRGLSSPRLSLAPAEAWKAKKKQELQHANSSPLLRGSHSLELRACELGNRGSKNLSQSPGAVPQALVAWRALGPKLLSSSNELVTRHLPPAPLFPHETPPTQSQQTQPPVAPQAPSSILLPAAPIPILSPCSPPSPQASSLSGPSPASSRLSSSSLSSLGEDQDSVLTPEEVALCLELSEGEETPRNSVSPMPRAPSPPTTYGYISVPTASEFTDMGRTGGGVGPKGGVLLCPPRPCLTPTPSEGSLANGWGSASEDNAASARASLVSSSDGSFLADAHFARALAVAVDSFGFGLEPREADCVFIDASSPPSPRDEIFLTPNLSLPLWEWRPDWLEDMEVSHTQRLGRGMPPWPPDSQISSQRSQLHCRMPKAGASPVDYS

[2] = biological target: T2, N末端FLAG−tag付加型ヒトROBO4細胞外領域ドメイン欠損体 hROBO4−341 (human, UniProt Q8WZ75 341-1007); assay: flow cytometry, transfected HEK293 cells
T2 construct: On HEK293 cells; also called pCI−FLAG−hROBO4−341; pCI−hROBO4−341
T2 sequence: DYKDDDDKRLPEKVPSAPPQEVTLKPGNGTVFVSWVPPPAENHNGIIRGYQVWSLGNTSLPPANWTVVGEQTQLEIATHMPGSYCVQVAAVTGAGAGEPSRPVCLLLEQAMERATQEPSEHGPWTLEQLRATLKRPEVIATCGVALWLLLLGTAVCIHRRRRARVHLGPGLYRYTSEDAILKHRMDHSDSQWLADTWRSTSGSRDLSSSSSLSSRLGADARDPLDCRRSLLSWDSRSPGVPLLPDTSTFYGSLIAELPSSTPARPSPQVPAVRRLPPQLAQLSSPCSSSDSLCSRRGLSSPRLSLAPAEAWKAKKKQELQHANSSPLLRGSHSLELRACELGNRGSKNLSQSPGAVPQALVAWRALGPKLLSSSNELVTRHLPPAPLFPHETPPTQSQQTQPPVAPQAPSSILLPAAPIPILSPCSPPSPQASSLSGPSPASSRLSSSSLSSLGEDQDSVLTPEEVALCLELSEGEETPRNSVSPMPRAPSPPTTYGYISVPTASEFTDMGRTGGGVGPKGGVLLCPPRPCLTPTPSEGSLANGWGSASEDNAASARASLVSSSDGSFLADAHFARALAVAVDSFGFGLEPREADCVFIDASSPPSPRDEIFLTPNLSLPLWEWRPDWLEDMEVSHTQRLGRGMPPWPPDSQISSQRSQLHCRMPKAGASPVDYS

[3] = biological target: T3, N末端FLAG−tag付加型カニクイザルROBO4 cynoROBO4−1 (cynomolgus monkey, UniProt Q8WZ75 28-1007 (human entry)); assay: flow cytometry, transfected HEK293 cells, 10 μg/mL
T3 construct: also called pCI−FLAG−cynoROBO4−1
T3 chain: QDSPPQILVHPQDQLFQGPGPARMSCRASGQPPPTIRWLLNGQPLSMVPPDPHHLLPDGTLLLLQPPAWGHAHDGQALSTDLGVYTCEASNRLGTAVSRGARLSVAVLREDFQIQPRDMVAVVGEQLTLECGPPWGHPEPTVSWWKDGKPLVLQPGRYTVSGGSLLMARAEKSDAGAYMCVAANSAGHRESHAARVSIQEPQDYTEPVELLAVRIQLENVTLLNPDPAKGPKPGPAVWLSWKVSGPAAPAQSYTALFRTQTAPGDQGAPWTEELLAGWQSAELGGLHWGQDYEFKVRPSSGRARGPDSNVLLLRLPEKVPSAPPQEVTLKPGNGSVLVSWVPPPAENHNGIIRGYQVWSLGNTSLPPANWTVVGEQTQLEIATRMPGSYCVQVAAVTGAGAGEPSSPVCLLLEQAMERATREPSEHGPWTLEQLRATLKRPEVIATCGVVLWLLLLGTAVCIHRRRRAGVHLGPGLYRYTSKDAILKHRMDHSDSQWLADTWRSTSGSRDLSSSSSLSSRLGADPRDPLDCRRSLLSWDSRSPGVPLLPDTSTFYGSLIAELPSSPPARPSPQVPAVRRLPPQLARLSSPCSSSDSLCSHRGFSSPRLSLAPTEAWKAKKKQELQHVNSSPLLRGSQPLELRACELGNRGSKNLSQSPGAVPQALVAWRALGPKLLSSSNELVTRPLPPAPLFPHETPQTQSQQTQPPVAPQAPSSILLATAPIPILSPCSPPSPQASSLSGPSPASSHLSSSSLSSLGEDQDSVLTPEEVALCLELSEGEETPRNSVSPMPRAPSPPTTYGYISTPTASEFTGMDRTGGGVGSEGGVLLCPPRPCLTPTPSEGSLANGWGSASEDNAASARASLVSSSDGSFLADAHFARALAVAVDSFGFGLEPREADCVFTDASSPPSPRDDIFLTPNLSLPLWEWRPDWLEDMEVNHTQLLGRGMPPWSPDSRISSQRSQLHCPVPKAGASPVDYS

- binding result [1]: no binding (tested: 10 μg/mL)
- binding result [2]: no binding (tested: 10 μg/mL)
- binding result [3]: binds
B1: 抗ROBO4マウスモノクローナル抗体 MAb1 (antibody, V domains shown)
VH: EVQLVESGGGLVKPGGSLKLSCAASGFTFSTYAMSWVRQTPEKRLEWVATISNGGTYTYYPDSVKGRFTISRDNAENTLYLQMSSLRSEDTAMYFCARLIYYDYLDYWGHGTTLTVSS
VL: DAVMTQTPLSLPVSLGDQASISCRSSQSLENSNGNTYLNWYFQKPGQSPQLLIYRVSNRFSGVLDRFSGSGSGTDFTLKISRVEAEDFGVYFCLQVTHVPWTFGGGTKLEIKR
notes: Mouse IgG1 (gamma 1) / kappa from a hybridoma; The constant regions are not in the listing; also called MAb1
